Patent publication US20110081661A1, “Modified photoproteins with increased affinity for calcium and enhanced bioluminescence and uses thereof” (Millipore Corporation, priority 2009, published 2011)

T1: GIP Receptor (Homo sapiens, UniProt P48546)
T1 construct: host or cells: HEK293T
T1 sequence (P48546 22-466): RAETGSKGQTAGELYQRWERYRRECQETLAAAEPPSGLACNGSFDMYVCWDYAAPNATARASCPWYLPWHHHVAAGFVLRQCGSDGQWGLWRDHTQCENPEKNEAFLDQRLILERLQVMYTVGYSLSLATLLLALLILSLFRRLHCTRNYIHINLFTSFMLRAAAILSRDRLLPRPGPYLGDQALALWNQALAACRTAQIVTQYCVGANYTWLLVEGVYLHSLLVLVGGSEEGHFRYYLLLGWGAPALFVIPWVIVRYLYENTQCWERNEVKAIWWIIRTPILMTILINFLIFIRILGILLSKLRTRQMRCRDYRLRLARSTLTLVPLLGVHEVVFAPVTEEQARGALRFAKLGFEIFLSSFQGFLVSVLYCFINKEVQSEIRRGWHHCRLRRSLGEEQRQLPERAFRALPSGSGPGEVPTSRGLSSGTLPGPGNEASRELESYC


Legend:
[1] = Calcium EC50 of mitochondrially targeted photoproteins in HEK293T cells without cotransfected GPCR or G protein (Table II); type: cell-based; conditions: no cotransfected GPCR or G protein
Text: In an exemplary experiment, HEK293T cells (ATCC-CRL-11268) were transiently co-transfected with 2 μgs of each of pcDNA3.1-H1 (containing the cDNA encoding the H1 histamine receptor) and pcDNA3.1 containing the cDNAs encoding wild type mitochondrial Clytin (referred to as mt-Clytin), modified mitochondrial Clytin having a lysine to aspartic acid mutation at position 168 (referred to as mt-Clytin K168D), modified mitochondrial Clytin having a lysine to glutamic acid mutation at position 168 (referred to as mt-Clytin K168E), wild-type mitochondrial Obelin (referred to as mt-Obelin) or wild type mitochondrial Aequorin (referred to as mt-Aequorin) using the Targefect-293 reagent (TARGETING SYSTEMS). 48 hours later, the cells were detached using Accutase (MILLIPORE), centrifuged, and resuspended in […] in FreeStyle293 media (INVITROGEN), for incubation for 3-4 hours at room temperature in the dark. After incubation, the cells were centrifuged and resuspended in HBSS/HEPES buffer without Ca^2+ at a density of 1×10^6 cells/ml. Next, 100 μl/well of cell suspension for each transfection were added by the use of a Victor2 luminometer plate reader (WALLAC, […]), to a 96-well plate containing 50 μL/well Triton X-100 in MOPS/KCl buffer containing 10 mM EGTA and a series of Ca^2+ concentrations, such that free calcium concentrations ranged from 17 nM to 39.6 μM, followed by for measurement of total bioluminescence at 20 seconds.
(§1) Signal to background ratio was calculated as the signal induced by maximal GIP (1 μM) divided by the signal induced by buffer alone. The EC50 value for calcium was determined as described above for FIG. 2 for mitochondrially targeted photoproteins transfected into HEK293T cells in the absence of a cotransfected GPCR or G protein. Affinity for calcium was correlated with the properties of the amino acid side chain at residue 168 of Clytin.

GIP Receptor = molecular target: T1, GIP Receptor; test: GIP receptor-mediated bioluminescence in HEK293T cells with chimeric promiscuous G protein (FIG. 5, Table II); type: cell-based; conditions: for Max signal with GIP (RLU × 10^−5) / EC50: HEK293T cells, GIP Receptor + promiscuous G protein; for EC50: luminescence vs GIP concentration; for % GPCR/total: signal induced by maximal GIP (1 μM) as percentage of signal induced by Triton X-100 with 1 mM Ca^2+; for Signal: background with GIP: signal induced by maximal GIP (1 μM) divided by signal induced by buffer alone
Method: However, coexpression of GIP receptor with a chimeric G protein containing sequences from Gαs and Gαq enable the GIP receptor to stimulate calcium flux.
The results of the dose response curve to varying concentrations of GIP with a subset of the photoproteins are summarized in FIG. 5.
as §1
The EC50 value for receptor-mediated calcium flux induced by the ligand was determined by plotting luminescence (Y-axis) versus ligand concentration applied to the cells (X-axis), and applying a sigmoidal dose-response curve-fitting algorithm (GraphPad Prism). GPCR-mediated signals of the various modified forms of Clytin having an amino acid substitution at position 168 were also related to the nature of the side chain. In addition, the subcellular location of the photoproteins (cytosolic vs mitochondrial) appeared to have an effect on GPCR-mediated signals. […] All of the other mitochondrially targeted mutants except for Clytin K168R and wild-type Clytin yielded results that were in the range of those observed for wt-Aequorin.

Molecule	EC50 [1]	Max signal with GIP (RLU × 10^−5) (GIP Receptor)	EC50 (GIP Receptor)	% GPCR/total (GIP Receptor)	Signal: background with GIP (GIP Receptor)	Calcium EC50 (nM) [1]
Mt-clytin K168S: Mitochondrial K168S modified Clytin, SEQ ID NO:22 (protein) MSVLTPLLLRGLTGSARRLPVPRAKIHSLPPEGKLRPNFDNPKWVNRHKFMFNFLDINGDGKITLDEIVSKASDDICAKLGATPEQTKRHQDAVEAFFKKIGMDYGKEVEFPAFVDGWKELANYDLKLWSQNKKSLIRDWGEAVFDIFDKDGSGSISLDEWKAYGRISGICSSDEDAEKTFKHCDLDNSGSLDVDEMTRQHLGFWYTLDPNADGLYGNFVP	228 nM	3.84 RLU × 10^−5	15.4 nM	20.3%	124.1	–
Mt-clytin K168Q: Mitochondrial K168Q modified Clytin, SEQ ID NO:20 (protein) MSVLTPLLLRGLTGSARRLPVPRAKIHSLPPEGKLRPNFDNPKWVNRHKFMFNFLDINGDGKITLDEIVSKASDDICAKLGATPEQTKRHQDAVEAFFKKIGMDYGKEVEFPAFVDGWKELANYDLKLWSQNKKSLIRDWGEAVFDIFDKDGSGSISLDEWKAYGRISGICSSDEDAEKTFKHCDLDNSGQLDVDEMTRQHLGFWYTLDPNADGLYGNFVP	335 nM	4.78 RLU × 10^−5	17.4 nM	14.2%	125.8	–
K168E (protein) MADTASKYAVKLRPNFDNPKWVNRHKFMFNFLDINGDGKITLDEIVSKASDDICAKLGATPEQTKRHQDAVEAFFKKIGMDYGKEVEFPAFVDGWKELANYDLKLWSQNKKSLIRDWGEAVFDIFDKDGSGSISLDEWKAYGRISGICSSDEDAEKTFKHCDLDNSGELDVDEMTRQHLGFWYTLDPNADGLYGNFVP	176 nM	–	–	–	–	–
K168G (protein) MADTASKYAVKLRPNFDNPKWVNRHKFMFNFLDINGDGKITLDEIVSKASDDICAKLGATPEQTKRHQDAVEAFFKKIGMDYGKEVEFPAFVDGWKELANYDLKLWSQNKKSLIRDWGEAVFDIFDKDGSGSISLDEWKAYGRISGICSSDEDAEKTFKHCDLDNSGGLDVDEMTRQHLGFWYTLDPNADGLYGNFVP	–	–	–	–	–	calcium affinities comparable to wild-type Aequorin, however, better than wt-Clytin
K168S (protein) MADTASKYAVKLRPNFDNPKWVNRHKFMFNFLDINGDGKITLDEIVSKASDDICAKLGATPEQTKRHQDAVEAFFKKIGMDYGKEVEFPAFVDGWKELANYDLKLWSQNKKSLIRDWGEAVFDIFDKDGSGSISLDEWKAYGRISGICSSDEDAEKTFKHCDLDNSGSLDVDEMTRQHLGFWYTLDPNADGLYGNFVP	–	–	–	–	–	calcium affinities comparable to wild-type Aequorin, however, better than wt-Clytin

Further lines, with some results ahead:

EC50 [1]	Max signal with GIP (RLU × 10^−5) (GIP Receptor)	EC50 (GIP Receptor)	% GPCR/total (GIP Receptor)	Signal: background with GIP (GIP Receptor)	Molecule	Calcium EC50 (nM) [1]
358 nM	3.82 RLU × 10^−5	21 nM	10.7%	115.9	Mt-clytin K168N: Mitochondrial K168N modified Clytin, SEQ ID NO:18 (protein) MSVLTPLLLRGLTGSARRLPVPRAKIHSLPPEGKLRPNFDNPKWVNRHKFMFNFLDINGDGKITLDEIVSKASDDICAKLGATPEQTKRHQDAVEAFFKKIGMDYGKEVEFPAFVDGWKELANYDLKLWSQNKKSLIRDWGEAVFDIFDKDGSGSISLDEWKAYGRISGICSSDEDAEKTFKHCDLDNSGNLDVDEMTRQHLGFWYTLDPNADGLYGNFVP	–
232 nM	5.09 RLU × 10^−5	15.1 nM	19.3%	146.8	Mt-clytin K168G: Mitochondrial K168G modified Clytin, SEQ ID NO:16 (protein) MSVLTPLLLRGLTGSARRLPVPRAKIHSLPPEGKLRPNFDNPKWVNRHKFMFNFLDINGDGKITLDEIVSKASDDICAKLGATPEQTKRHQDAVEAFFKKIGMDYGKEVEFPAFVDGWKELANYDLKLWSQNKKSLIRDWGEAVFDIFDKDGSGSISLDEWKAYGRISGICSSDEDAEKTFKHCDLDNSGGLDVDEMTRQHLGFWYTLDPNADGLYGNFVP	–
174 nM	4.26 RLU × 10^−5	13.4 nM	22%	113.4	Mt-clytin K168T: Mitochondrial K168T modified Clytin, SEQ ID NO:24 (protein) MSVLTPLLLRGLTGSARRLPVPRAKIHSLPPEGKLRPNFDNPKWVNRHKFMFNFLDINGDGKITLDEIVSKASDDICAKLGATPEQTKRHQDAVEAFFKKIGMDYGKEVEFPAFVDGWKELANYDLKLWSQNKKSLIRDWGEAVFDIFDKDGSGSISLDEWKAYGRISGICSSDEDAEKTFKHCDLDNSGTLDVDEMTRQHLGFWYTLDPNADGLYGNFVP	–
174 nM	–	–	–	–	K168T (protein) MADTASKYAVKLRPNFDNPKWVNRHKFMFNFLDINGDGKITLDEIVSKASDDICAKLGATPEQTKRHQDAVEAFFKKIGMDYGKEVEFPAFVDGWKELANYDLKLWSQNKKSLIRDWGEAVFDIFDKDGSGSISLDEWKAYGRISGICSSDEDAEKTFKHCDLDNSGTLDVDEMTRQHLGFWYTLDPNADGLYGNFVP	–
545 nM	–	–	–	–	wild-type Clytin (protein, listed as Clytia gregaria) MADTASKYAVKLRPNFDNPKWVNRHKFMFNFLDINGDGKITLDEIVSKASDDICAKLGATPEQTKRHQDAVEAFFKKIGMDYGKEVEFPAFVDGWKELANYDLKLWSQNKKSLIRDWGEAVFDIFDKDGSGSISLDEWKAYGRISGICSSDEDAEKTFKHCDLDNSGKLDVDEMTRQHLGFWYTLDPNADGLYGNFVP	–
–	6.47 RLU × 10^−5	7.9 nM	26.2%	66.4	Cyto-clytin K168E: K168E modified Clytin amino acid sequence, SEQ ID NO:11; cytosolic (protein) MADTASKYAVKLRPNFDNPKWVNRHKFMFNFLDINGDGKITLDEIVSKASDDICAKLGATPEQTKRHQDAVEAFFKKIGMDYGKEVEFPAFVDGWKELANYDLKLWSQNKKSLIRDWGEAVFDIFDKDGSGSISLDEWKAYGRISGICSSDEDAEKTFKHCDLDNSGELDVDEMTRQHLGFWYTLDPNADGLYGNFVP	–
–	1.80 RLU × 10^−5	9.86 nM	56.7%	47	Cyto-obelin: Wild-type Obelin (wt-Obelin) amino acid sequence, SEQ ID NO:4; cytosolic (protein, listed as Obelia longissima) MSSKYAVKLKTDFDNPRWIKRHKHMFDFLDINGNGKITLDEIVSKASDDICAKLEATPEQTKRHQVCVEAFFRGCGMEYGKEIAFPQFLDGWKQLATSELKKWARNEPTLIREWGDAVFDIFDKDGSGTITLDEWKAYGKISGISPSQEDCEATFRHCDLDNSGDLDVDEMTRQHLGFWYTLDPEADGLYGNGVP	–
